Laboratory results: patent WO2015116852A1 (dated 2015)
Where a chain is given by its changes, count along the chain named.

T1: hIL-6R recombinant protein (human, UniProt P08887 20-358)
T1 construct: also called hlL-6R recombinant protein; human IL-6R
T1 sequence: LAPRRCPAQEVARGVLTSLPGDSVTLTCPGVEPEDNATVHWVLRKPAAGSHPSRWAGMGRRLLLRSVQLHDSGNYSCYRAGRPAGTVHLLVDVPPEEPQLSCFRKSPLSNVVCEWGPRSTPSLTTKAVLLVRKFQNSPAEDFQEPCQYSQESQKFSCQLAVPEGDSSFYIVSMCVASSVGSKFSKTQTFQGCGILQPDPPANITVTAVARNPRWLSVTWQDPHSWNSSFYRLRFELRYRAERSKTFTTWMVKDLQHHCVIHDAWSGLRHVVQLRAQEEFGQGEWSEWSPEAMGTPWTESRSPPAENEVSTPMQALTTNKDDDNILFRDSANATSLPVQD

T2: Recombinant human monomeric IL-6R protein (human, UniProt P08887 20-358)
T2 construct: also called monomeric hIL-6R; human receptor
T2 sequence: T1 sequence

T3: Recombinant monkey monomeric IL-6R protein (Macaca fascicularis, extracellular domain) (Macaca fascicularis, UniProt P08887 21-330 (human entry))
T3 construct: also called monkey IL-6R; monkey receptor
T3 chain: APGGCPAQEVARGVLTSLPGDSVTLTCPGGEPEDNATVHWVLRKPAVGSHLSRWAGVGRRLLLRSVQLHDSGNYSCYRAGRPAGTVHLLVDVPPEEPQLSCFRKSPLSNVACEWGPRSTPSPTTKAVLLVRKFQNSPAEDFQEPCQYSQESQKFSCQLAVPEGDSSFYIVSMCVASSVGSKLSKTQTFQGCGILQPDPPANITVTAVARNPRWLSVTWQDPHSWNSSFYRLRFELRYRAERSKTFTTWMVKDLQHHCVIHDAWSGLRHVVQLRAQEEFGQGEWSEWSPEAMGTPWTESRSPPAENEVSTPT

B1: VV6C10-3 (antibody, V domains shown)
VH: QVQLVQSGAEVKKPGASVKVSCKASGFNFFHYGITWVRQAPGQGLEWMGWISTYNGDTIYAQKVQGRVTMTTDTATSTAYMELRSLRSDDTAVYYCARSEQQVDYYFYGMDVWGQGTTVTVSS
VL: EIVLTQSPATLSLSPGERATLSCRASQSVSSYLAWYQQKPGQAPRLLIYDASNRATGIPARFSGSGSGTDFTLTISSLEPEDFAFYYCQQRNNRPPFTFGPGTKVDVR
notes: also called W6C10-3
B2: VV1G4-7 (antibody, V domains shown)
VH: QVQLVQSGAEVKEPGASVKVSCKASGYTFTSYDIIWVRQATGQGLEWMGWMNPNSGNTGYTQNLQGRVTLTRNTSITTVYMELSSLSSEDTAVYYCARDYSSHYYGLDVWGQGTTVTVSS
VL: DIQLTQSPSFLSTSIGDRVTITCWASQDISNYLAWYQQKPGKAPKLLIFVASTLQSGVPSRFSGSGSGTEFTLTISSLQPEDFATYYCQQFNSYPLTFGGGTKVEIK
notes: also called W1 G4; W1 G4-7
B3: VV6F12-11 (antibody, V domains shown)
VH: B2 VH with V20I, N57D, T58R, N73D, T77S, S87R, S102N
VL: B2 VL with T13A, I15V, K107R
B4: VV3D8-4 (antibody, V domains shown)
VH: EVQLVESGGGLVQPGRSLRLSCAASGFTFDDYALHWVRQAPGKGLEWVSGISWNSGRIGYADSVKGRFTISRDNAKNSLFLQMNSLRAEDTALYYCAKGRDAFDIWGQGTLVTVSS
VL: DIQMTQSPSSVSASVGDRVTITCRASQGISSWLAWYQQKPGKAPKLLIYAASSLQSGVPSRFSGSGSGTDFTLTISSLQPEDFATYYCQQANSFPYTFGQGTKLEIK
notes: also called W3D8
B5: VQ8F11-21 (antibody, V domains shown)
VH: B4 VH with G26R, L34M, K76E, S85G, A102S, L111M
VL: B4 VL with A50G, Q55E, T85S
notes: also called mAb1; sarilumab
B6: VV6A9-5 (antibody, V domains shown)
VH: B4 VH with I51V, S55G, A88V
VL: B4 VL with Q90H, N92Y
notes: also called W6A9-5
B7: VV9A6-11 (antibody, V domains shown)
VH: QVQLVQSGAEVKKPGASVKVSCKASGYTFTSYGISWVRQAPGQGLEWMGWISAYNDDTNYAQKFQGRVTMTTDTSTSTAYMELRSLRSDDTAVYYCAREAQLVLYYYYGMDVWGQGTTVTVSS
VL: EIVLTQSPATLSLSPGERATLSCRASQSVSSFLAWNQQKPGQAPRLLIYDASNRATGIPARFSGSGSGTDFTLTISSLEPEDFAVYYCQQRSNWPYIFGQGTKLEIK
notes: also called W9A6
B8: VQ8A9-6 (antibody, V domains shown)
VH: EVQLVESGGNLVQPGRSLRLSCAASGFIFDDYAMHWVRQAPGKGLEWVSGISWNSGSIGYADSVKGRFTISRDNAKNSLYLQMNSLRAEDTALYYCAKDGGSSWLPFVYYYGMDVWGQGTTVTVSS
VL: EIVMTQSPATLSVSPGERATLSCRASQSISSNFAWYQQKPGQAPRLLIYGASTRATGIPARFSGSGSGTDFTLTISSLQSEDFAVYYCQQYSSWPPYTFGQGTKLEIK

Assays:
[1] = target: T1, hIL-6R recombinant protein; experiment: competition ELISA on plate-coated hIL-6R, competitor control antibody; similar SPR experiment
[2] = target: T2, Recombinant human monomeric IL-6R …; experiment: BIAcore, antibody captured on anti-mouse Fc, monomeric receptor injected
[3] = target: T3, Recombinant monkey monomeric IL-6R …; experiment: as above

Row | binding result [1] | Kd [2] [nM] | binding result [3] | Binder
1 | binds | – | – | B1
2 | – | 0.241 | no binding (tested: 1.25 - 40 nM) | B2
3 | binds | – | – | B3
4 | binds | – | – | B4
5 | binds | – | binds | B5
6 | binds | – | binds | B6
7 | binds | – | – | B7
8 | binds | – | binds | B8
